Laboratory results reported in US20120066777A1 (SHIONOGI, published 2012).

T1: human recombinant CCDC3 protein (human, UniProt Q9BQI4 22-270)
T1 construct: Secreted from Freestyle293 cells, purified from culture supernatant, 3xFlag tag removed with thrombin (31 kDa); the C-terminus at 270 follows from the C-terminus peptide 259-270; Also used biotin-labelled (PEO-maleimide biotin) as tracer; also called human CCDC3 recombinant protein; human CCDC3 protein
T1 sequence: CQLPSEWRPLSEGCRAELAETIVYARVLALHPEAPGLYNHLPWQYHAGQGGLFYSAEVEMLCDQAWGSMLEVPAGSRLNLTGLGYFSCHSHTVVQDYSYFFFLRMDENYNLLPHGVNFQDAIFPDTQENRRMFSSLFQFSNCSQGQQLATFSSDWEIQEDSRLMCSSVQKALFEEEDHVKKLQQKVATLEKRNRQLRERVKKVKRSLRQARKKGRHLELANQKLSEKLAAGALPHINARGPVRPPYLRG


Legend:
[1] = target: T1, human recombinant CCDC3 protein; assay: displacement ELISA: captured antibody, unlabelled human recombinant CCDC3 (0.01 to 100 nM) against biotin-human recombinant CCDC3
Method: A buffer A containing 10 μl of CCDC3 antibody was added to the anti-mouse IgG antibody-anchored plate, and 10 μl of 0.01 to 100 nM human recombinant CCDC3 was added. The mixture was allowed to react at 4° C. for 16 hours after adding buffer A (10 μl) that contained 1 ng of biotin-human recombinant CCDC3 protein and 4 ng of Streptavidin-HRP (PIERCE). Each well was washed three times with washing liquid (90 μl), and 25 μl of TMB+Substrate-Chromogen (DAKO) was added to develop color at room temperature for 30 min. The reaction was stopped by adding 25 μl of 0.5 M sulfuric acid, and absorbance at 450 nm was measured.

[2] = target: T2, human CCDC3 protein C-terminus partial peptide (259-270) (human, PEO-maleimide activated biotin on the added N-terminal Cys); assay: raised against the peptide-KLH; hybridoma screened by ELISA on the biotin-labelled peptide
T2 construct: the immunogen was the 12 mer conjugated to KLH; also called biotin-human CCDC3 protein C-terminus region peptide
Method: Specific antibody producing cells were screened 10 days after the cells were fused. Screening was performed by ELISA, as follows. A Tris buffer (50 mM Tris-HCl, pH 7.5, 35 μl) containing anti-mouse IgG antibodies (0.35 μg; Shibayagi Co., Ltd.) was added to each well of a 384-well microtiter plate (Nunc), and the antibodies were immobilized at 4° C. for 16 hours. The wells were washed once with 90 μl of washing liquid (physiological saline containing 0.01% Tween 20), and left unattended at room temperature for 2 hours for blocking after adding […] of Block Ace (Dainippon Pharma) (anti-mouse IgG antibody-anchored plate). After washing each well once with washing liquid (90 μl), a hybridoma culture supernatant (15 μl) and buffer A (10 μl; 50 mM Tris buffer containing 0.5% bovine serum albumin, 0.01% Tween 80, 0.05% Proclin 150, and 0.5 M NaCl; pH 7.4) were added. When the immunogen was the peptide-KLH conjugate, buffer A (10 μl) containing 0.02 ng of the biotin-human CCDC3 protein C-terminus region peptide and 2 ng of Streptavidin-HRP (PIERCE) was added. When the immunogen was the human recombinant CCDC3 protein or its KLH-conjugate, buffer A (10 μl) containing 1 ng of the biotin-human recombinant CCDC3 protein and 4 ng of Streptavidin-HRP (PIERCE) was added. […] The reaction was stopped by adding 25 μl of 0.5 M sulfuric acid, and absorbance at 450 nm was measured.

| IC50 [1] [nM] | binding result [2] | Binder |
| --- | --- | --- |
| 9.4 | binds | 3H6 antibody (antibody, IgG2b, V domains shown, Mouse hybridoma monoclonal, isotype IgG2b; From a mouse immunized with antigen 1 (human CCDC3 C-terminus peptide 259-270 conjugated to KLH); Used biotinylated as capture antibody in the sandwich ELISA; also called human anti-CCDC3 antibody 3H6) VH: QIQLVQSGPELKKPGETVKISCKASGYTFTNYGMIWVKQAPGKDLKWMAWINTYSGEPTCADDFKGRFAFSLETSASTAYLQINNLKNEDMATYFCARDDGYYGYFDYWGQGTTLTVSS VL: DVVMTQTPLSLPVSLGDQASISCRSSQTLVHSDGNTYLHWYLQKPGQSPKLLIYKISNRFSGVPDRFSGSGSGTDFTLKISRVEAEDLGVYFCSQSTHVPPTFGGGTKLEIKR |
| 0.1 | – | 11E10 antibody (antibody, IgG2b, V domains shown, Mouse hybridoma monoclonal, isotype IgG2b; From a mouse immunized with antigen 2 (human recombinant CCDC3-KLH conjugate); also called human anti-CCDC3 antibody 11E10) VH: QVQLQQSGPELVKPGASVKISCKASGYSFRSYYIHWMKQSPGQGLEWIAWIYPGGGKIYYNDNEKFKDKVTLTADTSSSTAYMQLTGLTSEDSAVYFCARWGGYYVGSILDYWGQGTSVTVSS VL: DGDIVMTQSQKFLSTSVGDRVSVTCKASQNVDNNVAWYQQRPGQSPKPLIYLTSSRYSGVPDRFTGSGSGTDFTLTITNVQSEDLAEYFCQQYKTYPLTFSVGTKLELKRA |
| 3.2 | – | 6G12 antibody (antibody, IgG1, V domains shown, Mouse hybridoma monoclonal, isotype IgG1; From a mouse immunized with antigen 3 (human recombinant CCDC3); Used biotinylated as capture antibody in the sandwich ELISA; also called human anti-CCDC3 antibody 6G12) VH: QVQLQQPGAELVRPGASVKMSCKASGYTFSSYLMDWVKQRPGQGFECIGNINPNTGSTIYNERFKGKAKLTVDKSSSTAYMQLISLTSEDSAVYYCAADGYYAPFTYWGQGTLVTVSA VL: DIVMTQAAPSVPVTPGESVSISCRSSKSLLHNNGNTYLYWFLQRPGQSPQLLIYRMSNLASGVPDRFSGSGSGTAFTLRISRVEAEDVGVYYCMQHLEYPFTFGAGTKLELKR |
